# Results reported in US20240166745A1 (Eli Lilly, published 2024).
# Numbering of substitutions follows the chain as printed.
# T1: Cynomolgus LAG-3-ECD (cynomolgus)
# T1 construct: as printed it starts with the N-terminal leader (MWEAQ...) and ends with a His tag; also called Cynomolgus LAG-3 ECD-His
# T1 chain: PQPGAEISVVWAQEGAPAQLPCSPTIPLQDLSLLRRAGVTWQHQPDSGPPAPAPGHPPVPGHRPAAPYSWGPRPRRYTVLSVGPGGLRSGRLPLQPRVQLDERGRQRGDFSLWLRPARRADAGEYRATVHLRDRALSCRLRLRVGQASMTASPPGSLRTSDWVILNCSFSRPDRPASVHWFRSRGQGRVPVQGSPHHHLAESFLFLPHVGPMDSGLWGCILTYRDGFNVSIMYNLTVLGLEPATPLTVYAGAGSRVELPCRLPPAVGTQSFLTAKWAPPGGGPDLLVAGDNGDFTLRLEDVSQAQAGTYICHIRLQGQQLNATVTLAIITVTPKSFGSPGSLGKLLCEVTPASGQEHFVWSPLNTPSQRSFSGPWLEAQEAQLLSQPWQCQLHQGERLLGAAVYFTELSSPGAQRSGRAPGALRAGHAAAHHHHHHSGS
# T2: Human LAG-3 ECD-His (human, UniProt P18627 23-449)
# T2 construct: Soluble analyte in SPR; the entry includes linker and His tag; also called human LAG-3-His
# T2 sequence: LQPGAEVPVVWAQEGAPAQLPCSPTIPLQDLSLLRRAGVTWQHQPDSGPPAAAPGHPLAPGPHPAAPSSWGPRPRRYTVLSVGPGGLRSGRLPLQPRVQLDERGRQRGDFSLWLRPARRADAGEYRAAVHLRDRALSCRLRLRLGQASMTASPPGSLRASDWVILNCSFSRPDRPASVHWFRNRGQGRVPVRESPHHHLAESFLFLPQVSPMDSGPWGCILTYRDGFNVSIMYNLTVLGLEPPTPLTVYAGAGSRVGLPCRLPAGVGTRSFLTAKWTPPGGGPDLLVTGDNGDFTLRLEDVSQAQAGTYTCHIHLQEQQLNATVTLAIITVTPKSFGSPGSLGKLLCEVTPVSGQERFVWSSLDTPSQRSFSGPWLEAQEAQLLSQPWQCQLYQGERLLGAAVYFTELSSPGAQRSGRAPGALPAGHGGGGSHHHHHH
# B1: Antibody A (bispecific antibody, human IgG1, kappa, lambda)
# heavy 1: not shown
# light 1: DIVMTQTPLSLPVTPGEPASISCRSSQSLLDSAEGSTYLDWFLRKPGDSPQLLIYTLSYRASGVPDRFSGSGSGTDFTLKISRVEAEDVGVYYCMQRVEFPYTFGQGTKVEIKRTVAAPSVFIFPPSKEQLKSGTASVVCLLNNFYPREAKVQWKVDNALQSGNSQESVTEQDSKDSTYSLSSTLTLSKADYEKHKVYACEVTHQGLSSPVTKSFNRGEC
# heavy 2: QVQLVQSGAEVKKPGASVKVSCKVSGYSLSKYDMSWVRKAPGKGLEWMGIIYTSGYTDYAQEFQGRVTMTEDTSTDTAYMELSSLRSEDTAVYYCATGNPYYTNGFNSWGQGTLVTVSSASTKGPSVFPLAPSSKSTSGGTAALGCLVKDYFPEPVTVSWNSGALTSGVATGPAVLQSSGLYSLSSVVTVPSSSLGTQTYICNVNHKPSNTKVDKRVEPKSCDKTHTCPPCPAPELLGGPSVFLFPPKPKDTLMISRTPEVTCVVVDVSHEDPEVKFNWYVDGVEVHNAKTKPREEQYNSTYRVVSVLTVLHQDWLNGKEYKCKVSNKALPAPIEKTISKAKGQPREPQVYTLPPSREEMTDNQVSLTCLVKGFYPSDIAVEWESNGQPENNYKTTPPVLMSDGSFFLASKLTVDKSRWQQGNVFSCSVMHEALHNHYTQKSLSLSPGK
# light 2: RIQMTQSPSSLSASVGDRVTITCQASQSPNNLLAWYQDKPGKAPKLLIYGASDLPSGVPSRFSGSGSGTDFTLTISSLQPEDFATYYCQNNYYVGPVSYAFGGGTKVEIKGQPKAAPSVTLFPPSSEELQANKATLVCYISDFYPGAVTVAWKADSSPVKAGVETTTPSKQSNNKYAAWSYLSLTPEQWKSHRSYSCQVTHEGSTVEKTVAPTEC
# notes: IgG-like bispecific with one LAG-3 arm and one PD-1 arm; also called human LAG-3/human PD-1 dual agonist bispecific antibody
# B2: Antibody B (bispecific antibody, human IgG1, kappa, lambda)
# heavy 1: not shown
# light 1: B1 light 1
# heavy 2: B1 heavy 2 with K324A
# light 2: B1 light 2
# notes: also called human LAG-3/human PD-1 dual agonist bispecific antibody
# Experiments:
# Cynomolgus LAG-3-ECD = target: T1, Cynomolgus LAG-3-ECD; assay: SPR (Biacore T200), antibody captured on PrismA chip, ECD as analyte, 37° C.
# Procedure: (§1) A Biacore® T200 (Cytiva, Marlborough, MA) was used to measure the binding kinetics and affinities of the LAG-3 antibody to the LAG-3 soluble extracellular domain (ECD) and the bispecific antibody to soluble LAG-3-ECD and PD-1-ECD (human: Sino Biologicals, Cat #10377-H08H; cynomolgus: Sino Biologicals, Cat #90311-C08H) by surface plasmon resonance. Samples were diluted in HBS-EP+ (10 mM Hepes, 150 mM NaCl, 3 mM EDTA, 0.05% Tween-20, pH 7.6) (Teknova Cat #H8022) with 5 g/L of BSA (Jackson ImmunoResearch Cat #001-000-161) running buffer. PrismA Series S Sensor chip (Cat #29650263) is purchased from Cytiva.
# Binding was evaluated using multi-cycle kinetics by an antibody capture method. Each cycle was performed at either 37° C. or 25° C. at a flow rate of 10 μL/min for antibody capture to the PrismA chip and 100 μL/min for analyte association (with 120 sec contact time) and dissociation (900 sec). Each cycle consisted of the following steps: injection of bispecific antibody at 1 μg/mL in HBS-EP+ targeting Rmax values of 125 RU (LAG-3 arm), 294 RU (PD-1 arm) and 63 RU (LAG-3 antibody) on flow cell, injection of analyte in HBS-EP+(concentration range of 62.5 nM to 0.25 nM by two-fold serial dilution for both human PD-1-ECD-His (SEQ ID NO: 40) and human LAG-3-His (SEQ ID NO: 42) followed by 900-second dissociation phase, and regeneration using 10 μL of 10 mM glycine hydrochloride, pH 1.5 over a 60-second contact time utilizing a 10 μL/min flow rate. All analyte concentrations were determined utilizing monomeric molecular weight (MW) values. Association rates (kₒₙ) and dissociation rates (koff) for LAG-3-ECD and PD-1-ECD were evaluated using double referencing by flow-cell one reference subtraction in addition to 0 nM blank subtraction and fit to “1:1 (Langmuir) binding” model in the BIAevaluation software version 4.1. The dissociation constant (KD) was calculated from the binding kinetics according to the relationship KD=Koff/Kₒₙ. Stoichiometry=[RUₘₐₓ/RUcaptured]/[MWanalyte/MWantibody] where MWAntibodyA is 150 kDa. Values are reported as mean±standard deviation.
# [1] = target: T3, cell membrane-expressed human LAG-3/PD-1 (human, UniProt P18627 23-525; Q15116 25-288); assay: flow cytometry, labeled antibody on anti-CD3 activated human PBMC, CD4 T cells, percent of cells bound (mean +/- SEM, n=3)
# T3 construct: also called Human CD4
# Procedure: (§2) Cells were incubated with 10-12 point, 3-fold serial dilutions of the respective labeled antibody (Invitrogen #S20026, Invitrogen #C20029), starting at 30 ug/mL, in PBS+2% FCS for 30 minutes at 4° C. and containing the following: CD4 eBioscience #12-0047-42 or Biolegend #344634; CD8 eBioscience #25-0088-42; CD3 eBioscience 56-0038-82 for human cells and BD #557917 for cyno cells; CD33 eBioscience 45-0338-42 for human cells; Live/Dead eBioscience #65-0865-18. After washing thoroughly, cells were processed on a BD Fortessa or Fortessa X20 cytometer, and data were analyzed with Flowjo software (BD Biosciences). Percent of cells bound by the respective antibody is quantified and graphed with Prism (Graphpad, San Diego, CA).
# [2] = target: T4, cell membrane-expressed cynomolgus LAG-3/PD-1 (cynomolgus); assay: flow cytometry, labeled antibody on anti-CD3 activated cynomolgus PBMC, CD4 T cells, percent of cells bound (mean +/- SEM, n=3)
# T4 construct: whole, on cells; Two separate membrane proteins on the same cells, not a complex; also called Cyno CD4
# Procedure: as §2
# [3] = target: T4, cell membrane-expressed cynomolgus …; assay: flow cytometry, labeled antibody on anti-CD3 activated cynomolgus PBMC, CD8 T cells, percent of cells bound (mean +/- SEM, n=3)
# Procedure: as §2
# Human LAG-3 ECD-His = target: T2, Human LAG-3 ECD-His; assay: SPR (Biacore T200), antibody captured on PrismA chip, ECD as analyte, 37° C., steady-state equilibrium model (SS); 37° C., steady-state equilibrium model
# Human PD-1 ECD-His = target: T5, Human PD-1 ECD-His (human, UniProt Q15116 25-167); assay: SPR (Biacore T200), antibody captured on PrismA chip, ECD as analyte; temperature unclear: the 37° C. label is printed only at r14, by the order of Table 3a probably 37° C.; 37° C. (label printed late, at r14)
# T5 construct: Soluble analyte in SPR; the entry includes the His tag
# Procedure: as §1
# Binding was evaluated using multi-cycle kinetics by an antibody capture method. […] Each cycle consisted of the following steps: injection of bispecific antibody at 1 μg/mL in HBS-EP+ targeting Rmax values of 125 RU (LAG-3 arm), 294 RU (PD-1 arm) and 63 RU (LAG-3 antibody) on flow cell, injection of analyte in HBS-EP+(concentration range of 62.5 nM to 0.25 nM by two-fold serial dilution for both human PD-1-ECD-His (SEQ ID NO: 40) and human LAG-3-His (SEQ ID NO: 42) followed by 900-second dissociation phase, and regeneration using 10 μL of 10 mM glycine hydrochloride, pH 1.5 over a 60-second contact time utilizing a 10 μL/min flow rate. All analyte concentrations were determined utilizing monomeric molecular weight (MW) values. […]
# T4 sequence (P79185 26-458): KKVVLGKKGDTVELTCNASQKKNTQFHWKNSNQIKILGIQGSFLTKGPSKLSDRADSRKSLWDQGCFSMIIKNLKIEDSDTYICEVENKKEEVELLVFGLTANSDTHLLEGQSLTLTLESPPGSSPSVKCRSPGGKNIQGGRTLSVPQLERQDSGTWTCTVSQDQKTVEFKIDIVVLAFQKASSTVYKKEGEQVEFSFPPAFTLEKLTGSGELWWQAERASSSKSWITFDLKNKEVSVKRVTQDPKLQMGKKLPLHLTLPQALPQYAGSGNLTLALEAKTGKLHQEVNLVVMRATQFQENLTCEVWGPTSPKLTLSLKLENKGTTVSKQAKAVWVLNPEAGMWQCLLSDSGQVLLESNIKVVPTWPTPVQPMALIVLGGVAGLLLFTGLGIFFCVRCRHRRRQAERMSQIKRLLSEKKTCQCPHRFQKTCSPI
# T3 sequence (Q15116 25-288 limits assumed, one chain of several): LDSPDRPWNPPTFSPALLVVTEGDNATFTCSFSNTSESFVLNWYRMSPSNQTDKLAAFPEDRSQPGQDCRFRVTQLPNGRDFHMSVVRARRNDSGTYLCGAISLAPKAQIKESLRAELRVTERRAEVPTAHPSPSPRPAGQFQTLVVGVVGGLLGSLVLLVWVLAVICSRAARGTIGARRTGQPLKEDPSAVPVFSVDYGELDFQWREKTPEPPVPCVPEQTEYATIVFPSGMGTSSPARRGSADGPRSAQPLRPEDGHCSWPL
# T5 sequence (Q15116 other isoform, or with tags, fused parts or gaps): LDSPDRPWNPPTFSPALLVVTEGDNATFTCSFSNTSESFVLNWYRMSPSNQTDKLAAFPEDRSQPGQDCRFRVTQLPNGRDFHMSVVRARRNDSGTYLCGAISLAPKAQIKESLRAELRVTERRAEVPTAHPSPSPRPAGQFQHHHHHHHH
Binder,Kd (Cynomolgus LAG-3-ECD) [nM],koff (Cynomolgus LAG-3-ECD) [s⁻¹],kon (Cynomolgus LAG-3-ECD) [M⁻¹ s⁻¹],EC50 [1] [µg/mL],EC50 [2] [µg/mL],EC50 [3] [µg/mL],Kd (Human LAG-3 ECD-His) [nM],kon (Human PD-1 ECD-His) [M⁻¹ s⁻¹]
B1,0.51,0.01,2e+07,0.0357,0.0293,0.0167,5.7,–
B2,0.48,0.0098,2e+07,0.0423,0.0337,0.018,–,2.4e+06
